Results on 8 molecules are retold here after patent US9958461B2, “Detection of protein to protein interactions” (THE GOVERNING COUNCIL OF THE UNIVERSITY OF TORONTO, priority 2013, dated 2018).

For test [1], the target named is T1, EGFR-Wt (Homo sapiens, UniProt P00533).
T1 construct: with the advantage of testing full-length integral membrane proteins; (GGGGS)2 linker-Cub (human ubiquitin aa 35-76)-GAL4(1-147)-mNFkB(364-550) (C); expressed in transfected cells
Briefly: MaMTH EGFR-interactor screen, lentiviral preys against EGFR-wildtype bait (interaction score). It counts as cell-based. Particulars: MaMTH interaction score of prey with EGFR-Wt bait, mean. The method, boiled down:
(§1)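 5×GAL4UAS-luciferase HEK293T reporter cells were lentivirally infected with preys (MOI ~0.3-0.4) and puromycin-selected ≥48 h. They were then transfected in triplicate with the EGFR bait, and luciferase was read 24 h later. Score is fold-change over averaged negative-control preys; >1 denotes interaction.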

Test [2] relates to EGFR-Wt. Described as above. It counts as cell-based, human. Particulars: ratio of EGFR-Wt mean to EGFR-L858R mean interaction score. The method, boiled down: as §1
The target of a further test is T2, EGFR-L858R (Homo sapiens, UniProt P00533, L858R).
T2 construct: with the advantage of testing full-length integral membrane proteins; (GGGGS)2 linker-Cub (human ubiquitin aa 35-76)-GAL4(1-147)-mNFkB(364-550) (C); expressed in transfected cells
Description: MaMTH EGFR-interactor screen, lentiviral preys against EGFR-L858R bait (interaction score). It counts as cell-based. Particulars: MaMTH interaction score of prey with EGFR-L858R bait. The method, boiled down:
as §1

B1: Shc1 (protein, UniProt P98083 1-579, looked up)
SHC-transforming protein 1: MDLLPPKPKYNPLRNESLSSLEEGASGSTPPEELPSPSASSLGPILPPLPGDDSPTTLCSFFPRMSNLKLANPAGGRLGPKGEPGKAAEDGEGSAGAALRDSGLLPLLQDMNKLSGGGGRRTRVEGGQLGGEEWTRHGSFVNKPTRGWLHPNDKVMGPGVSYLVRYMGCVEVLQSMRALDFNTRTQVTREAISLVCEAVPGAKGATRRRKPCSRPLSSILGRSNLKFAGMPITLTVSTSSLNLMAADCKQIIANHHMQSISFASGGDPDTAEYVAYVAKDPVNQRACHILECPEGLAQDVISTIGQAFELRFKQYLRNPPKLVTPHDRMAGFDGSAWDEEEEEPPDHQYYNDFPGKEPPLGGVVDMRLREGAARPTLPSAQMSSHLGATLPIGQHAAGDHEVRKQMLPPPPCPGRELFDDPSYVNIQNLDKARQAGGGAGPPNPSLNGSAPRDLFDMKPFEDALRVPPPPQSMSMAEQLQGEPWFHGKLSRREAEALLQLNGDFLVRESTTTPGQYVLTGLQSGQPKHLLLVDPEGVVRTKDHRFESVSHLISYHMDNHLPIISAGSELCLQQPVDRKV
As to B1, the EGFR-Wt mean with EGFR-Wt [1] came to 13.89. In the test with EGFR-Wt [2], the Wt/L858R was 0.64. The EGFR-L858R mean with EGFR-L858R is 21.65.

B2: BAIAP2 (protein, UniProt Q9UQB8 1-552, looked up)
BAR/IMD domain-containing …: MSLSRSEEMHRLTENVYKTIMEQFNPSLRNFIAMGKNYEKALAGVTYAAKGYFDALVKMGELASESQGSKELGDVLFQMAEVHRQIQNQLEEMLKSFHNELLTQLEQKVELDSRYLSAALKKYQTEQRSKGDALDKCQAELKKLRKKSQGSKNPQKYSDKELQYIDAISNKQGELENYVSDGYKTALTEERRRFCFLVEKQCAVAKNSAAYHSKGKELLAQKLPLWQQACADPSKIPERAVQLMQQVASNGATLPSALSASKSNLVISDPIPGAKPLPVPPELAPFVGRMSAQESTPIMNGVTGPDGEDYSPWADRKAAQPKSLSPPQSQSKLSDSYSNTLPVRKSVTPKNSYATTENKTLPRSSSMAAGLERNGRMRVKAIFSHAAGDNSTLLSFKEGDLITLLVPEARDGWHYGESEKTKMRGWFPFSYTRVLDSDGSDRLHMSLQQGKSSSTGNLLDKDDLAIPPPDYGAASRAFPAQTASGFKQRPYSVAVPAFSQGLDDYGARSMSRNPFAHVQLKPTVTNDRCDLSAQGPEGREHGDGSARTLAGR
Regarding B2, the EGFR-Wt mean with EGFR-Wt [1] worked out at 4.83. Further, the Wt/L858R in the test on EGFR-Wt [2] was found to be 0.66. In the test with EGFR-L858R, this molecule had an EGFR-L858R mean of 7.37.

B3: WASF3 (protein, UniProt Q9UPY6 1-502, looked up)
Actin-binding protein WASF3: MPLVKRNIEPRHLCRGALPEGITSELECVTNSTLAAIIRQLSSLSKHAEDIFGELFNEANNFYIRANSLQDRIDRLAVKVTQLDSTVEEVSLQDINMKKAFKSSTVQDQQVVSKNSIPNPVADIYNQSDKPPPLNILTPYRDDKKDGLKFYTDPSYFFDLWKEKMLQDTEDKRKEKRRQKEQKRIDGTTREVKKVRKARNRRQEWNMMAYDKELRPDNRLSQSVYHGASSEGSLSPDTRSHASDVTDYSYPATPNHSLHPQPVTPSYAAGDVPPHGPASQAAEHEYRPPSASARHMALNRPQQPPPPPPPQAPEGSQASAPMAPADYGMLPAQIIEYYNPSGPPPPPPPPVIPSAQTAFVSPLQMPMQPPFPASASSTHAAPPHPPSTGLLVTAPPPPGPPPPPPGPPGPGSSLSSSPMHGPPVAEAKRQEPAQPPISDARSDLLAAIRMGIQLKKVQEQREQEAKREPVGNDVATILSRRIAVEYSDSDDDSEFDENDWSD
B3 had an EGFR-Wt mean in the test with EGFR-Wt [1] of 1.30. In addition, the Wt/L858R in the test on EGFR-Wt [2] amounted to 0.61. Further, in the test with EGFR-L858R, the EGFR-L858R mean was 2.15.

B4: SH3GL2 (protein, UniProt Q99962 1-352, looked up)
Endophilin-A1: MSVAGLKKQFHKATQKVSEKVGGAEGTKLDDDFKEMERKVDVTSRAVMEIMTKTIEYLQPNPASRAKLSMINTMSKIRGQEKGPGYPQAEALLAEAMLKFGRELGDDCNFGPALGEVGEAMRELSEVKDSLDIEVKQNFIDPLQNLHDKDLREIQHHLKKLEGRRLDFDYKKKRQGKIPDEELRQALEKFDESKEIAESSMFNLLEMDIEQVSQLSALVQAQLEYHKQAVQILQQVTVRLEERIRQASSQPRREYQPKPRMSLEFPTGDSTQPNGGLSHTGTPKPSGVQMDQPCCRALYDFEPENEGELGFKEGDIITLTNQIDENWYEGMLHGHSGFFPINYVEILVALPH
In the test with EGFR-Wt [1], B4 registered an EGFR-Wt mean of 4.58. The Wt/L858R in the test on EGFR-Wt [2] amounted to 0.58. Besides, the EGFR-L858R mean in the test with EGFR-L858R is on record as 7.85.

B5: MAPK8 (protein, UniProt P45983 1-427, looked up)
Mitogen-activated protein …: MSRSKRDNNFYSVEIGDSTFTVLKRYQNLKPIGSGAQGIVCAAYDAILERNVAIKKLSRPFQNQTHAKRAYRELVLMKCVNHKNIIGLLNVFTPQKSLEEFQDVYIVMELMDANLCQVIQMELDHERMSYLLYQMLCGIKHLHSAGIIHRDLKPSNIVVKSDCTLKILDFGLARTAGTSFMMTPYVVTRYYRAPEVILGMGYKENVDLWSVGCIMGEMVCHKILFPGRDYIDQWNKVIEQLGTPCPEFMKKLQPTVRTYVENRPKYAGYSFEKLFPDVLFPADSEHNKLKASQARDLLSKMLVIDASKRISVDEALQHPYINVWYDPSEAEAPPPKIPDKQLDEREHTIEEWKELIYKEVMDLEERTKNGVIRGQPSPLGAAVINGSQHPSSSSSVNDVSSMSTDPTLASDTDSSLEAAAGPLGCCR
Turning to B5, the EGFR-Wt mean with EGFR-Wt [1] is recorded as 3.30. Besides, the Wt/L858R with EGFR-Wt [2] is 0.64. Besides, the EGFR-L858R mean with EGFR-L858R was found to be 5.13.

B6: SH2D3A (protein, UniProt Q9BRG2 1-576, looked up)
SH2 domain-containing protein …: MQVPQDGEDLAGQPWYHGLLSRQKAEALLQQNGDFLVRASGSRGGNPVISCRWRGSALHFEVFRVALRPRPGRPTALFQLEDEQFPSIPALVHSYMTGRRPLSQATGAVVSRPVTWQGPLRRSFSEDTLMDGPARIEPLRARKWSNSQPADLAHMGRSREDPAGMEASTMPISALPRTSSDPVLLKAPAPLGTVADSLRASDGQLQAKAPTKPPRTPSFELPDASERPPTYCELVPRVPSVQGTSPSQSCPEPEAPWWEAEEDEEEENRCFTRPQAEISFCPHDAPSCLLGPQNRPLEPQVLHTLRGLFLEHHPGSTALHLLLVDCQATGLLGVTRDQRGNMGVSSGLELLTLPHGHHLRLELLERHQTLALAGALAVLGCSGPLEERAAALRGLVELALALRPGAAGDLPGLAAVMGALLMPQVSRLEHTWRQLRRSHTEAALAFEQELKPLMRALDEGAGPCDPGEVALPHVAPMVRLLEGEEVAGPLDESCERLLRTLHGARHMVRDAPKFRKVAAQRLRGFRPNPELREALTTGFVRRLLWGSRGAGAPRAERFEKFQRVLGVLSQRLEPDR
Consider B6, for which the EGFR-Wt mean with EGFR-Wt [1] is on record as 4.75. Besides, in the test with EGFR-Wt [2], the Wt/L858R is reported as 0.66. The molecule further came in with an EGFR-L858R mean with EGFR-L858R of 7.23.

B7: MAP3K3 (protein, UniProt Q99759 1-626, looked up)
Mitogen-activated protein …: MDEQEALNSIMNDLVALQMNRRHRMPGYETMKNKDTGHSNRQSDVRIKFEHNGERRIIAFSRPVKYEDVEHKVTTVFGQPLDLHYMNNELSILLKNQDDLDKAIDILDRSSSMKSLRILLLSQDRNHNSSSPHSGVSRQVRIKASQSAGDINTIYQPPEPRSRHLSVSSQNPGRSSPPPGYVPERQQHIARQGSYTSINSEGEFIPETSEQCMLDPLSSAENSLSGSCQSLDRSADSPSFRKSRMSRAQSFPDNRQEYSDRETQLYDKGVKGGTYPRRYHVSVHHKDYSDGRRTFPRIRRHQGNLFTLVPSSRSLSTNGENMGLAVQYLDPRGRLRSADSENALSVQERNVPTKSPSAPINWRRGKLLGQGAFGRVYLCYDVDTGRELASKQVQFDPDSPETSKEVSALECEIQLLKNLQHERIVQYYGCLRDRAEKTLTIFMEYMPGGSVKDQLKAYGALTESVTRKYTRQILEGMSYLHSNMIVHRDIKGANILRDSAGNVKLGDFGASKRLQTICMSGTGMRSVTGTPYWMSPEVISGEGYGRKADVWSLGCTVVEMLTEKPPWAEYEAMAAIFKIATQPTNPQLPSHISEHGRDFLRRIFVEARQRPSAEELLTHHFAQLMY
In the test with EGFR-Wt [1], B7 returned an EGFR-Wt mean of 2.01. For the same molecule, the Wt/L858R in the test with EGFR-Wt [2] is given as 0.58. In addition, in the test with EGFR-L858R, the EGFR-L858R mean stood at 3.46.

B8: PAK1 (protein, UniProt Q13153 2-545, looked up)
Serine/threonine-protein …: SNNGLDIQDKPPAPPMRNTSTMIGAGSKDAGTLNHGSKPLPPNPEEKKKKDRFYRSILPGDKTNKKKEKERPEISLPSDFEHTIHVGFDAVTGEFTGMPEQWARLLQTSNITKSEQKKNPQAVLDVLEFYNSKKTSNSQKYMSFTDKSAEDYNSSNALNVKAVSETPAVPPVSEDEDDDDDDATPPPVIAPRPEHTKSVYTRSVIEPLPVTPTRDVATSPISPTENNTTPPDALTRNTEKQKKKPKMSDEEILEKLRSIVSVGDPKKKYTRFEKIGQGASGTVYTAMDVATGQEVAIKQMNLQQQPKKELIINEILVMRENKNPNIVNYLDSYLVGDELWVVMEYLAGGSLTDVVTETCMDEGQIAAVCRECLQALEFLHSNQVIHRDIKSDNILLGMDGSVKLTDFGFCAQITPEQSKRSTMVGTPYWMAPEVVTRKAYGPKVDIWSLGIMAIEMIEGEPPYLNENPLRALYLIATNGTPELQNPEKLSAIFRDFLNRCLEMDVEKRGSAKELLQHQFLKIAKPLSSLTPLIAAAKEATKNNH
As to B8, the EGFR-Wt mean in the test with EGFR-Wt [1] stood at 1.50. For the same molecule, in the test on EGFR-Wt [2], the Wt/L858R was determined as 0.55. This molecule also registered an EGFR-L858R mean in the test with EGFR-L858R of 2.70.
